From patent publication US20100092974A1, “METHODS FOR SCREENING FOR MODULATORS OF CCRL2” (The Board of Trustees of the Leland Stanford Junior …, priority 2008, published 2010)

Columns and labels:
mCMKLR1 = target: T1, mCMKLR1 (Mus musculus, UniProt P97468); experiment: immunofluorescence-based chemerin-binding assay, mCMKLR1-HA L1.2; conditions: 10 nM His8-tagged chemerin, anti-His6 PE
T1 construct: expressed in transfected cells; host or cells: L1.2 mouse pre-B lymphoma cells
T1 sequence (P97468 1-371): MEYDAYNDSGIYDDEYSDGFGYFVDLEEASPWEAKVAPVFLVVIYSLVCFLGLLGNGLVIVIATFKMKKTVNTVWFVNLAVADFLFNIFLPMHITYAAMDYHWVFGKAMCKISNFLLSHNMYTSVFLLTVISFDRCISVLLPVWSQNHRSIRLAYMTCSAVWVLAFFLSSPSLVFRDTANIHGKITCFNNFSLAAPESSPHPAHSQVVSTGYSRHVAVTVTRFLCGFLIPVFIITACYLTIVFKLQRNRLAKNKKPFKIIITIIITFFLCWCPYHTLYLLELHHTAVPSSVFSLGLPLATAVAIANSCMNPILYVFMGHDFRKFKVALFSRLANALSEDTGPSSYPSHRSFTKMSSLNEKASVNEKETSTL

mCRTH2 = target: T2, mCRTH2 (Mus musculus, UniProt Q9Z2J6); experiment: immunofluorescence-based chemerin-binding assay, mCRTH2-HA L1.2; conditions: 10 nM His8-tagged chemerin, anti-His6 PE
T2 construct: The coding regions of mCCRL2, huCCRL2, mCRTH2, and huCCR10 were amplified from genomic DNA; expressed in transfected cells
T2 sequence (Q9Z2J6 1-382): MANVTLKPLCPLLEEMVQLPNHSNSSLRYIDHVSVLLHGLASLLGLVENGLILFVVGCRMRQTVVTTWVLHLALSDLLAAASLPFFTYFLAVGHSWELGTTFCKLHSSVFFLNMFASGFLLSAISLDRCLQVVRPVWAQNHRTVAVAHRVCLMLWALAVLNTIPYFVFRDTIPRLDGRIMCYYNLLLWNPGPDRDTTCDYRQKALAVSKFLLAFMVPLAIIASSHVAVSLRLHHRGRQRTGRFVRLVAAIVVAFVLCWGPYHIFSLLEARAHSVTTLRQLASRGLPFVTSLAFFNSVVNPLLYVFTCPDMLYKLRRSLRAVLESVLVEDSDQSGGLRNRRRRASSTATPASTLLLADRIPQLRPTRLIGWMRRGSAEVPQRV

mCCRL2 = target: T3, mCCRL2 (Mus musculus, UniProt O35457); experiment: chemerin internalization assay, mCCRL2-HA/L1.2 cells; format: cell-based; conditions: 10 nM His8-tagged serum form chemerin
T3 construct: The coding regions of mCCRL2, huCCRL2, mCRTH2, and huCCR10 were amplified from genomic DNA; expressed in transfected cells
T3 sequence (O35457 1-360): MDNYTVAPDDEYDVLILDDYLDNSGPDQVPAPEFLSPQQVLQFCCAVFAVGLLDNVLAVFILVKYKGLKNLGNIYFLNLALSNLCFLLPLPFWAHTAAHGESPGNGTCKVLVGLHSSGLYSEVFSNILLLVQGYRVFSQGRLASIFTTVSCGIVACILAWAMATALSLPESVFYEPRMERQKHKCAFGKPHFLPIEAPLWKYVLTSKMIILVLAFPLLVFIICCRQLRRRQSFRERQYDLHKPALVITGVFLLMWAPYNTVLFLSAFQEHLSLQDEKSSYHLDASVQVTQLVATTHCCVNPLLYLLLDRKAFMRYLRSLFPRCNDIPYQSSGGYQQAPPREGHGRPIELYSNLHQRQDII
Method: The primary cells were also stained with F4/80 and c-kit mAbs. Secondary anti-His6 PE was added to the cells and incubated for 30 minutes on ice. […] The cells were incubated for 5 minutes on ice with either PBS or acid wash buffer (0.2 M acetic acid, 0.5 M NaCl), and then analyzed by flow cytometry. Mast cells were identified by gating on SSC^high F4/80^− c-kit^+ cells.

In the case of “chemerin: protein ligand for signaling receptor CMKLR1; serum form human chemerin expressed in baculovirus-infected insect cells, His8-tag removed”, the chemerin binding (mCMKLR1) is reported as “unable to detect”, the chemerin binding (mCRTH2) is reported as “did not bind” and the “acid resistant cell-associated chemerin” value (mCCRL2; 5 min at 37° C.) is reported as “essentially no”. For the same substance, the “acid resistant cell-associated chemerin” value (mCCRL2; 60 min at 37° C.) was “very little”.
